In the DeepSol protein solubility set:

Assay: soluble on expression in E. coli; label from the status in PepcDB or PDB records
With “SMSNTTIEDEDVKARKQEIIKVTEQLIEAINNGDFEAYTKICDPGLTAFEPEALGNLVEGMDFHRFYFENALSKSNKPIHTIILNPHVHLVGDDAACIAYIRLTQYMDGSGMPKTMQSEETRVWHRRDGKWQNVHFHRSGSPTV” the “soluble on expression in E. coli” value was “soluble”.
In the case of “MTERKPEVIITYCTQCQWLLRAAWLAQELLSTFSDDLGKVSLEPATGGAFRITCDGVQIWERKADGGFPEAKVLKQRVRDQIDPERDLGHNDRTQLEHHHHHH”, the “soluble on expression in E. coli” value is reported as “soluble”.
In the case of “MKAIISYETPLEQAHFTAKNDEKNMFYKENTEESVEGSLQYDVLDAVGEFKGQPGYIVCNNISVTDEGRPVFENRFKNRAGLIENEPGFQAIRVLRPLSNDTYVILTMWETEQNFKDWTESRSFENAHKKRPVQAEGQAPAHPHAEQQKSIFSRPSFVTTFDVLV”, the “soluble on expression in E. coli” value is reported as “not soluble”.
For “MGSDKIHHHHHHMSQYAEMSLVYDQLTQDQPYEKWFEIVKNHCKDESNILDIGCGTGSLTVQLEALGNVTGMDLSVDMLTVAAQKSANVNWLEGDMTSFDLQQQFDIITIFCDSLNYLQDETAVIETFINVYHHLTDSGVFIFDVHTVYKMMTLFNNQSYIDDKGDIFLAWDAVQGDLPLSVYHDMTFFIRHEDETYSRFDESHFQRTFDEKTYLSWLAQVGFKHVETFTDFNIDEHNEDTERLFFIAKK”, the “soluble on expression in E. coli” value was “not soluble”.
For “MGSDKIHHHHHHLDRYPQEELSDGSFWKTPDDANKVVSDLYGYLSTWDQDNDINSDNATMGIKWAAGNVSKGIYDPADQGWSGDYANVRQCNLILSKIDEIPDYPEADKTKALGQVYFFRAYIYFNLIRSFGDVPYIDKPLDLKDMEGITRMPRAEVYEKIMADFDKAIAALPTEWGASDYGRVTKGAAMAMKARAALYYGNWDTAATEAKNVMDLGLYELYDKDNTGKYAELFWEKADGCDEFILVTQFNYPDKTHYLMGWECFPTKGWGGMNPTQSLVDAFEDSEGAPISKSKIYDPTDPFKNRDPRLEVDILHDGEEMYGVTIKVAPLASSGSTGINQHNDATETGYYGQKWLDPSLDPLSDGWNMGKDWVHIRYAEVLLTYAEAKNELQGLDPEAFDAVNQVRRRVGMPELQNTDPSKPTYCATQDDLRQRIRNEWRVEFCLEGGKRMWDIRRWGIAKDVLNAPFEGLKYKIVDNPNDPDKKVDGGKMCILYQGDPIILSGSRYSDNNYLFPVPQSEIDLNPALTQNPGY”, the “soluble on expression in E. coli” value was “not soluble”.
For “MLRPKEACQRLGISYATLREYVKKGYIKPVILQSGKQRFGEEDVERLMGIIRKRKVILYARVSSSTQKDELVNQVKYLEEQVKEYDLVITDIGSGLNMKRKGFLKLLRMILNNEVSRVVVAYPDRLVRVGFEILEEVCKAHNCEIVVLNQEDKEEELVEDLMSALVSFSGKLYGMRSHEYEKVKKCAEELKNWKI”, the “soluble on expression in E. coli” value was “not soluble”.
With “MAHHHHHHMSVVTTLSGVFEADLEATLMGYIHEAIGNAVNKGLQYARSTAQDRVLKMLIAYRRVCTSNATSSLLMPSRLRLIPLFVLSFMKADALVEGTTVPIDDRVQKLFLLMTIPMHQCVTYLYPTLYAVHHLLSEPTSGVIDPETGHCVLPGWQQLIFDSITTDGVYVLCDEQARIVYLWIGSSVVPEVSLELFGTTNALDVGRTVFFENFGERLKNVLYTCLMRDDGMRRFVILHEKDRGEEAFFRQFKEENEGGSMGYDQLLVHLHREVKKSIE” the “soluble on expression in E. coli” value was “not soluble”.
For “MANQVNGNAVQLKEEEEPMDTSSVTHTEHYKTLIEAGLPQKVAERLDEIFQTGLVAYVDLDERAIDALREFNEEGALSVLQQFKESDLSHVQNKSAFLCGVMKTYRQREKQGSKVQESTKGPDEAKIKALLERTGYTLDVTTGQRKYGGPPPDSVYSGVQPGIGTEVFVGKIPRDLYEDELVPLFEKAGPIWDLRLMMDPLSGQNRGYAFITFCGKEAAQEAVKLCDSYEIRPGKHLGVCISVANNRLFVGSIPKNKTKENILEEFSKVTGLTEGLVDVILYHQPDDKKKNRGFCFLEYEDHKSAAQARRRLMSGKVKVWGNVVTVEWADPVEEPDPEVMAKVKVLFVRNLATTVTEEILEKSFSEFGKLERVKKLKDYAFVHFEDRGAAVKAMDEMNGKEIEGEEIEIVLAKPPDKKRKERQAARQASRSTAYEDYYYHPPPRMPPPIRGRGRGGGRGGYGYPPDYYGYEDYYDDYYGYDYHDYRGGYEDPYYGYDDGYAVRGRGGGRGGRGAPPPPRGRGAPPPRGRAGYSQRGAPLGPPRGSRGGRGGPAQQQRGRGSRGSRGNRGGNVGGKRKADGYNQPDSKRRQTNNQQNWGSQPIAQQPLQQGGDYSGNYGYNNDNQEFYQDTYGQQWK”, the “soluble on expression in E. coli” value was “soluble”.
For “SNLYTERVLSVHHWNDTLFSFKTTRNPGLRFKTGQFVMIGLEVDGRPLMRAYSIASPNYEEHLEFFSIKVPDGPLTSRLQHLKEGDELMVSRKPTGTLVHDDLLPGKHLYLLSTGTGMAPFLSVIQDPETYERYEKVILVHGVRWVSELAYADFITKVLPEHEYFGDQVKEKLIYYPLVTREPFRNQGRQTDLMRSGKLFEDIGLPPMNPQDDRAMICGSPSMLEETSAVLDSFGLKISPRMGEPGDYLIERAFVEK”, the “soluble on expression in E. coli” value was “soluble”.
With “MGFKCGIVGLPNVGKSTLFNALTKAGIEAANYPFCTIEPNTGVVPMPDPRLDALAEIVKPERILPTTMEFVDIAGLVAGASKGEGLGNKFLANIRETDAIGHVVRCFENDDIVHVAGKIDPLDDIDTINTELALADLDSCERAIQRLQKRAKGGDKEAKFELSVMEKILPVLENAGMIRSVGLDKEELQAIKSYNFLTLKPTMYIANVNEDGFENNPYLDRVREIAAKEGAVVVPVCAAIESEIAELDDEEKVEFLQDLGIEEPGLNRVIRAGYALLNLQTYFTAGVKEVRAWTVSVGATAPKAAAVIHTDFEKGFIRAEVIAYEDFIQFNGENGAKEAGKWRLEGKDYIVQDGDVMHFRFNV” the “soluble on expression in E. coli” value was “soluble”.
With “MQKVRSDIMTHRGSHYDLGVKTALWLQTTPLLKNRNKEWRKRIPRFDIDVKETYDIFQIYSPQIWEEIIGMQDVLNLPTKQMILNFGHYRFTDLKDSGCTVYKGRDFLVRNYDYHPATYDGRYLLFQPNDGGLSQIGPTSRVTGRMDGMNEYGLVMAYNFMHRKKPANGFVCYMVGRLILENCKNVTEAIKFLKEVPHRSSFSYILMDRHSNYAIVEVTPRSIDVRYEHICTNHFELLTHENRNYTRESKERLNRVINKTTPSTNKDIAFKLFNDPQYEIYSNLFKSWSGTIHTSLYEPNSLIAWMALGQNSHPTSINFSNWLKGKKLNINYFEGEIDTPLTFATYLEHHHHHH” the “soluble on expression in E. coli” value was “not soluble”.
In the case of “GMKYKAAIFDMDGTILDTSADLTSALNYAFEQTGHRHDFTVEDIKNFFGSGVVVAVTRALAYEAGSSRESLVAFGTKDEQIPEAVTQTEVNRVLEVFKPYYADHCQIKTGPFPGILDLMKNLRQKGVKLAVVSNKPNEAVQVLVEELFPGSFDFALGEKSGIRRKPAPDMTSECVKVLGVPRDKCVYIGDSEIDIQTARNSEMDEIAVNWGFRSVPFLQKHGATVIVDTAEKLEEAILGE”, the “soluble on expression in E. coli” value is reported as “soluble”.
In the case of “MTVEHSEAPMTETDVVIIGAGHNGLTCAAYLAMAGLRVRVVERRKVVGGAAVTEEFHPGFRNSVAAYTVSLLNPQVIRDLGLAEQGLRIVERRAQNFLPAPDGSYLLTGEGRTKASVARLSAHDADALDGFSRELEDIADVLRQFVLRAPPNLLDGFGTNAIREAVNALQSANILRGLTLEQSRSLLDLFTRSAGEMLDERFEHDLVKALFGFDAIVGNYASPYAAGSAYVMLHHAFGEVNGKKGVWGHAIGGMGAITQAMARAAQGRGVAIDTDAGVREVIVERDRAVGVVLENGATIRAKYVAANVNPKLLYTRLIAADALPKDFLARIRHWKNGSGTFRMNVALDRLPSFTALPDDGDHLTSGIILAPSLGYMDRAFLDARAHGWSREPVVEMLIPSTLDDTLAPEGKHVASLFCQHVAPELPDSRSWDDHRDEVADLMIATVDSYAPGFASSVLGRQILSPLDLERQFGLLGGDIFHGALTLNQLFSARPMLGHADYRGPLKGLYHCGSGAHPGGGVTGAPGHNAAQAILRDHRSLFGSRGLEHHHHHH”, the “soluble on expression in E. coli” value is reported as “not soluble”.
For “MKIGVVGLGLIGASLAGDLRRRGHYLIGVSRQQSTCEKAVERQLVDEAGQDLSLLQTAKIIFLCTPIQLILPTLEKLIPHLSPTAIVTDVASVKTAIAEPASQLWSGFIGGHPMAGTAAQGIDGAEENLFVNAPYVLTPTEYTDPEQLACLRSVLEPLGVKIYLCTPADHDQAVAWISHLPVMVSAALIQACAGEKDGDILKLAQNLASSGFRDTSRVGGGNPELGTMMATYNQRALLKSLQDYRQHLDQLITLISNQQWPELHRLLQQTNGDRDKYVE”, the “soluble on expression in E. coli” value was “soluble”.
For “MDYLVKALAYDGKVRAYAARTTDMVNEGQRRHGTWPTASAALGRTMTASLMLGAMLKGDDKLTVKIEGGGPIGAIVADANAKGEVRAYVSNPQVHFDLNEQGKLDVRRAVGTNGTLSVVKDLGLREFFTGQVEIVSGELGDDFTYYLVSSEQVPSSVGVGVLVNPDNTILAAGGFIIQLMPGTDDETITKIEQRLSQVEPISKLIQKGLTPEEILEEVLGEKPEILETMPVRFHCPCSKERFETAILGLGKKEIQDMIEEDGQAEAVCHFCNEKYLFTKEELEGLRDQTTR”, the “soluble on expression in E. coli” value was “soluble”.
For “MVKIVELQEKESLYYCTKDEDHFFDRKAFGLKGEKVQKIAVAFANADGGEILVGIADDKDEVIPEKRWQGQESTEAYNSVIQALSELVPSVDFRFDFLTRVNESRNYVLRVKINKGLSVHETAKKKIFLRQGAQSLPVTAPIKILELTHAKGIISEEDSLVNSASIDELDSSIELTKFLSELPIRAPDPITFLLKEKLVDSETWAPTVAAVLLFAENPSAELPKQCAIRIVRYDTDGEDIDRDALTEDNIAIEGSLYQQIQDAYSKIELFLSKNKVWKVEGLVETKYPKETIWEILVNTVIHRDYAISDNVLVSIFNNRIEFKSPGRFTGFVTAENILENRCSRNSKIVRILSKYKDSPNKDLGEGMNTAFQRMRSMGLRDPEILEDGNYVKIILRHSSNDDPETLIMKFIESNGEINNRQARDLTGIDRTEKVTYQFSKLRDKGLIQRKDSSTGLKSSWIAVLEHHHHHH”, the “soluble on expression in E. coli” value was “not soluble”.
For “MGSDKIHHHHHHMAVRQDTIWERFLSPVMRLLIDEEGLRRYADSIDWEKEGDRFRRDDVIIPSYYSSQNFHGITGGYLTYNAAVSYDPITQYVVPPNETIVRQALIDAVKVKPRRILDLGCGTGSTTLMLKRAFPEAEVIGLDLSPYMLVRAEDKARNSGLEIVWRHGNAEKTSFRDATFDLVTASLLFHETPNEVSLAILQESFRLLVTGGQVLILDGNQKTLRQLEWLNDVFEEPYIREYAAGSIEANMGAAGFEAVRSQDVWWINQVTGGVKPIATENVRRYTPTSVDNNDLEGLGSPAFGIIA”, the “soluble on expression in E. coli” value was “not soluble”.
For “MGSDKIHHHHHHMFRSMRTSHERVHFTAKARRASTMAAPQNKVIVTCAVTGGIHTPTMSPHLPITARDIEDESVAAAEAGAAIVHLHARKPENGQPSQDPALFLEFLPRIAARSDVVINLTTGGAPNMLVEERLQPALQLKPEVASLNMGSMNFGLYPMIARHKTFKYDWERPYLEGSEDRVFRNTFKEIRYILESCADNGTRFEIECYDTSHLYTAAHFIDRGILKPPFFIQSVFGLLGGIGTHPDDVMHMRRTAERLFGKDYYWSVLGAGRSQMPIASMAAAMGGNVRVGLEDSLWEDRGRLSRSNADQVRRVVGILKSLNLEVATPDEARDMLQLKGRDAVAF”, the “soluble on expression in E. coli” value was “not soluble”.
With “HFNVLADTPSGLVPLHLRSPQVPAAQQMLNFPEKNKEKPVDLQNFGLRTDIYSKKTLAKSKGASAGREWTEQETLLLLEALEMYKDDWNKVSEHVGSRTQDECILHFLRLPIEDPYLENSDASLGPLAYQPVPFSQSGNPVMSTVAFLASVVDPRVASAAAKAALEEFSRVREEVPLELVEAHVKKVQEAARASGKVDPTYGLESSCIAGTGPDEPEKLEGAEEEKMEADPDGQQPEKAENKVENETDEGDKAQDGENEKNSEKEQDSEVSEDTKSEEKETEENKELTDTCKERESDTGKKKVEHEISEGNVATAAAAALASAATKAKHLAAVEERKIKSLVALLVETQMKKLEIKLRHFEELETIMDREKEALEQQRQQLLTERQNFHMEQLKYAELRARQQMEQQQHGQNPQQAHQHSGGPGLAPLGAAGHPGMMPHQQPPPYPLMHHQMPPPHPPQPGQIPGPGSMMPGQHMPGRMIPTVAANIHPSGSGPTPPGMPPMPGNILGPRVPLTAPNGMYPPPPQQQPPPPPPADGVPPPPAPGPPASAAP” the “soluble on expression in E. coli” value was “soluble”.
